{"source": "patent US20060246076A1", "target": "murine inducible nitric oxide synthase (murine) (UniProt P29477)"}
{"substance": "COX2-myc fragment 484-604 (from UniProt P35354)", "values": [{"measurement": "PGE2 formation reduction", "result": "> 50", "unit": "%"}]}
